Legend:
[1] = target: Thermococcus kodakaraensis Gins51ΔC (Met1-Arg130) (Thermococcus kodakaraensis); assay: SEC; Superdex 200 PC 3.2/30 on a SMART system; 50 mM Tris-HCl pH 8.0, 0.15 M NaCl, 7 mM β-mercaptoethanol, 0.1 mM EDTA; 20 μl of each protein at 20 μM; fractions on SDS-PAGE
[2] = target: the molecule itself; assay: as above
[3] = target: the molecule itself; assay: SEC + other: electron microscopy; data not shown (Ogino et al.)

Molecule	stoichiometry N [2]	also measured
Thermococcus kodakaraensis Gins51ΔC (Met1-Arg130) (domain or fragment)		stoichiometry N [1]: 2
Thermococcus kodakaraensis Gins51 (natural protein, UniProt Q5JF31 1-188, looked up, Gins51 subunit of the GINS complex of Thermococcus kodakaraensis; gins51 gene cloned into pET21a; also called TkoGins51; AB-type subunit of TkoGINS; source: E. coli codonPlus (DE3)-RIL, co-expressed with Gins23, purified (heat 80°C, HiTrap Phenyl, hydroxyapatite, HiTrap Q)) MDIVKLRELLEAELSSTDLNELDEDFYVEFDSLIKALKLSAESSRERGEDVEERLYLAQLKIAESLMKEIIKLRLHKIVDLAVEGKIAEMTAEEKRLFNVIRAFIEREELPEISEEVQPQEESEAEAEYRSKEVPKEAYIIQIDLPAVLGPDMKEYGPFMAGDMAIIPTVIGRALVEREAARRVRIFL	2	
Thermoplasma acidophilum GINS subunit (TacGins) (natural protein, UniProt Q9HJC8 1-233, looked up, TacGins, conserved hypothetical protein of Thermoplasma acidophilum, gene Ta1042 cloned into pET21a; the homology model counts residues 1 to 233; also called Ta1042; source: E. coli BL21 codonPlus (DE3)-RIL, purified (heat 60°C, polyethyleneimine, HiTrap Phenyl, HiTrap Q)) MKPADIDKLISEIRTAIYAEQSHRKIIEIDPDIYRKVRAALSDLQAEASEYFQKQDIENYLTMNNRFQTLKRDFRSLFQRRFEKIVAKAIYDISGETLSLLTDEEKEFIEKIHNIITEEFESFIPKREEKNEARAEAQPAPADESPTAIADQKPQEEPQVVQDQHQPPAEIPSENIEIKKEDGRYVLVMITEDLPPIAQLDRNYSLHSNDLVYLPQDLASILAKRKVALVLDQ		stoichiometry N [3]: 4
Thermococcus kodakaraensis Gins23 (natural protein, UniProt Q5JIT2 1-164, looked up, Gins23 subunit of the GINS complex of Thermococcus kodakaraensis; gins23 gene cloned into modified pET28 (thrombin site replaced by a TEV protease site); 94 to 100 and 132 to 133 missing); The final atomic model holds seven amino acids derived from the N-terminal tag; also called TkoGins23; BA-type subunit of TkoGINS; source: E. coli codonPlus (DE3)-RIL, co-expressed with Gins51, purified (heat …) MFTGKALIAVKVMKPFGDWKSGDIVLVEDWKARELWEAGVVEIVDETDKIIGEIDKVIAEERESEPLTLLPEGLYERAEFYAYYLENYVRLNPRESVDTINVKLTKLANLRKKLRDLKLIRFNKILKAVMLRPNSLELLSRLAPEERRIYLQMSKIRNEWLGDA	2	
